Laboratory results: doi:10.1101/2024.07.15.603533 (bioRxiv, 2024)
Changes are numbered by the printed parent chain. In names and notes the source's numbering stands.

B1: recombinant kinetoplastid membrane protein-11 (r-KMP-11), wild type (natural protein, Leishmania donovani)
chain: MATTYEEFSAKLDRLDQEFNRKMQEQNAKFFADKPDESTLSPEMREHYEKFERMIKEHTEKFNKKMHEHSEHFKQKFAELLEQQKAAQYPSK
B2: Alexa488-maleimide labelled r-KMP-11 S38C (natural protein, Leishmania donovani)
chain: B1 chain with S38C
modifications: Alexa 488 maleimide on the single cysteine (S38C); labeling percentage 86%

Columns and labels:
[1] = biological target: the molecule itself; experiment: negative stain electron microscopy
[2] = biological target: the molecule itself; experiment: single-molecule photobleaching step analysis
[3] = biological target: B1; experiment: fluorescence correlation spectroscopy

## B1
[1]
  stoichiometry N: 4

## B2
[2]
  stoichiometry N: 4
[3]
  binding result: binds
